Experimental data as given in article PMC12499447, “API5 Phosphorylation Promotes Antiviral Immunity by Inhibiting Degradation of Cytosolic RNA Sensor RLRs” (Advanced Science, 2025).

What was measured:
[1] = target: RIG‐I (UniProt O95786); assay: co-IP; settings: reference: API5 wild type; sites S464
[2] = target: p62 (UniProt Q13501); assay: co-IP; settings: reference: API5 wild type; sites S464
[3] = target: MDA5 (UniProt Q9BYX4); assay: co-IP; settings: reference: API5 wild type; sites S464
[4] = target: T1, His-SRPK1 (human (amplified from HEK293T cells), UniProt Q96SB4 1-655); assay: pull-down; purified GST-API5 (20 ng) or GST (20 ng) incubated with His-SRPK1 (50 ng) at 4 °C for 4 h; captured on GST resin; washed five times with NP-40 lysis buffer; immunoblot; settings: both partners purified
T1 construct: SRPK1, full-length gene amplified from HEK293T cells, in pET-28a; also called pET-28a-SRPK1; source: E. coli BL21 (pLysS), purified (Ni-NTA)

binding against the reference [1]	binding against the reference [2]	binding against the reference [3]	binding result [4]	Molecule
lost	weaker	lost		API5 (from UniProt Q9BZZ5) API5 S464A
			binds	GST-API5 (natural protein, human, UniProt Q9BZZ5 1-524, looked up, API5, human, full-length gene amplified from HEK293T cells, in pGEX-4T-1; also called pGEX-4T-1-API5; source: E. coli BL21 (pLysS), purified (glutathione resin)) MPTVEELYRNYGILADATEQVGQHKDAYQVILDGVKGGTKEKRLAAQFIPKFFKHFPELADSAINAQLDLCEDEDVSIRRQAIKELPQFATGENLPRVADILTQLLQTDDSAEFNLVNNALLSIFKMDAKGTLGGLFSQILQGEDIVRERAIKFLSTKLKTLPDEVLTKEVEELILTESKKVLEDVTGEEFVLFMKILSGLKSLQTVSGRQQLVELVAEQADLEQTFNPSDPDCVDRLLQCTRQAVPLFSKNVHSTRFVTYFCEQVLPNLGTLTTPVEGLDIQLEVLKLLAEMSSFCGDMEKLETNLRKLFDKLLEYMPLPPEEAENGENAGNEEPKLQFSYVECLLYSFHQLGRKLPDFLTAKLNAEKLKDFKIRLQYFARGLQVYIRQLRLALQGKTGEALKTEENKIKVVALKITNNINVLIKDLFHIPPSYKSTVTLSWKPVQKVEIGQKRASEDTTSGSPPKKSSAGPKRDARQIYNPPSGKYSSNLGNFNYEQRGAFRGSRGGRGWGTRGNRSRGRLY
